For assay [1], the target named is Pf-CD1 Ile138Arg (Pyrococcus furiosus). As to the kind of experiment: ITC; dilution experiment, 18 successive injections, 25 °C; fit to a two-state hexadecamer-monomer equilibrium (hexadecamer to monomers); parameters per subunit.
Assay [2] deals with Pf-CD1, Pyrococcus furiosus chaperonin subunit (Pf-Cpn) with the last 22 amino acids deleted (Pyrococcus furiosus). Described as above.
The target in assay [3] is Pf-CD1 Ile138His (Pyrococcus furiosus). The description is as above.
Assay [4] concerns the target T1, Pf-CD1 (Pyrococcus furiosus, UniProt Q8TZL6, DEL/LAST/OF/RESIDUES).
T1 construct: gene PF1974; C-terminal deletion (last 22 residues of Pf-Cpn removed); expressed in E. coli BL21(DE3) from pET33b; homo-hexadecamer (two octameric rings)
T1 sequence (Q8TZL6 1-527): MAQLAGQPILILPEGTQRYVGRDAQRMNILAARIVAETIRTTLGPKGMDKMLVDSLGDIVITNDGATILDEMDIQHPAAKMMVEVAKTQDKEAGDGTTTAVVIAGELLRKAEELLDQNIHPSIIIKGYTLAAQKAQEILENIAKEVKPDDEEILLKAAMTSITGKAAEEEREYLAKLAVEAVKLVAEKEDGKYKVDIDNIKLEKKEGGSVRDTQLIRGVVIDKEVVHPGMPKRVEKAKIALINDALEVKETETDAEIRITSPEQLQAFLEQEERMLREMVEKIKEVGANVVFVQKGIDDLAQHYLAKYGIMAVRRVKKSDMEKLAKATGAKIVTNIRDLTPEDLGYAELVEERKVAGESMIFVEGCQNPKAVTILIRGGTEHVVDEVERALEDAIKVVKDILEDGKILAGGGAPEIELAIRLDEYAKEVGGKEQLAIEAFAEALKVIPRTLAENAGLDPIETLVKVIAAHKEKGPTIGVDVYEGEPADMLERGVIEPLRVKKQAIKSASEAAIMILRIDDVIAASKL
As to the kind of experiment: isothermal titration calorimetry, one set of sites model. Type of assay: binding. An excerpt:
(§1) isothermal titration calorimetry, one set of sites model on Pf-CD1
A general note: In ITC the heat of successive injections is recorded.

Assay [5] concerns the target T2, Pf-CD1 (Pyrococcus furiosus, UniProt Q8TZL6, I138H).
T2 construct: gene PF1974; C-terminal deletion (last 22 residues of Pf-Cpn removed); expressed in E. coli BL21(DE3) from pET33b; homo-hexadecamer (two octameric rings)
The assay is described as above. Type of assay: binding.
Description: as §1

The target in assay [6] is T3, Pf-CD1 (Pyrococcus furiosus, UniProt Q8TZL6, I138R).
T3 construct: gene PF1974; C-terminal deletion (last 22 residues of Pf-Cpn removed); expressed in E. coli BL21(DE3) from pET33b; homo-hexadecamer (two octameric rings)
Described as above. Type of assay: binding.
Description: as §1

The Kd is the equilibrium constant for the complex coming apart. By stoichiometry N is commonly meant the number of molecules, sites or subunits per partner or assembly.

On to Pf-CD1 Ile138Arg (domain or fragment), for which, in assay [1], the dissociation constant Kd amounted to 0.1 µM, the dH of dissociation (∆Hd) is -49 kcal/mol and the stoichiometry N came to 16.

In the case of “Pf-CD1, Pyrococcus furiosus chaperonin subunit (Pf-Cpn) with the last 22 amino acids deleted (domain or fragment)”, in assay [2], the Kd came to 0.31 µM, the dH of dissociation (∆Hd) is -350 kcal/mol and the stoichiometry N worked out at 16.

Consider Pf-CD1 Ile138His (domain or fragment), for which, in assay [3], the dissociation constant (Kd) was determined as 0.43 µM, the dH of dissociation (∆Hd) was -250 kcal/mol and the stoichiometry N was determined as 16.

For the molecule `Nc1ncnc2c1ncn2[C@@H]1O[C@H](COP(=O)(O)OP(=O)(O)OP(=O)(O)O)[C@@H](O)[C@H]1O` [ATP], the Kd on Pf-CD1 [4] came to 0.32 ± 0.05 µM; on Pf-CD1 [5], 0.3 ± 0.02 µM; at Pf-CD1 [6] it was 0.2 ± 0.01 µM.

The values above are taken from article PMC5851525, “Quantitative analysis of the impact of a human pathogenic mutation on the CCT5 chaperonin subunit using a proxy archaeal ortholog^” (Biochemistry and Biophysics Reports, 2017).
